Test results from patent US20230212305A1 (published 2023).
Like-named read-outs stand apart in the source and are kept apart here.

Columns and labels:
[1] = molecular target: T1, cynomolgus ABCG2 (Macaca fascicularis) (UniProt Q5MB13 1-654); test: FACS binding to 293T cells
T1 chain: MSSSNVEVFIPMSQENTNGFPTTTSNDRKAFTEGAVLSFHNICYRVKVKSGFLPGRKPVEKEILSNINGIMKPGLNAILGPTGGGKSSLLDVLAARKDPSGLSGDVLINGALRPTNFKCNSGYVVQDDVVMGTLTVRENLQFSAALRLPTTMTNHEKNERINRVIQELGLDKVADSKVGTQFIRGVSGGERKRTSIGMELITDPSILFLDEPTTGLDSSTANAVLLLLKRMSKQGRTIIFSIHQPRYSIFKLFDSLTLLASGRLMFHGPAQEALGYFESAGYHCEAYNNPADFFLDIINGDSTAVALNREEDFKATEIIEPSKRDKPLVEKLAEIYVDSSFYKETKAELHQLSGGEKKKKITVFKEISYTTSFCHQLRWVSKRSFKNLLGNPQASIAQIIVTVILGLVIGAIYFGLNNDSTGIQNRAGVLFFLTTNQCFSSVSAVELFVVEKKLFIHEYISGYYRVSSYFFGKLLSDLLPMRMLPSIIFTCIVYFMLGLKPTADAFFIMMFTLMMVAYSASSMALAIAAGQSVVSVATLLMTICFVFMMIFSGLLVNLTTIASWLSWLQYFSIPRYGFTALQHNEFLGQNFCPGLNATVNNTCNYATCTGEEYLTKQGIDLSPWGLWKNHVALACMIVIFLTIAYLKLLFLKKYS

human ABCG2 [2] = molecular target: T2, human ABCG2 (UniProt Q9UNQ0 1-655); test: FACS binding to 293T cells
T2 chain: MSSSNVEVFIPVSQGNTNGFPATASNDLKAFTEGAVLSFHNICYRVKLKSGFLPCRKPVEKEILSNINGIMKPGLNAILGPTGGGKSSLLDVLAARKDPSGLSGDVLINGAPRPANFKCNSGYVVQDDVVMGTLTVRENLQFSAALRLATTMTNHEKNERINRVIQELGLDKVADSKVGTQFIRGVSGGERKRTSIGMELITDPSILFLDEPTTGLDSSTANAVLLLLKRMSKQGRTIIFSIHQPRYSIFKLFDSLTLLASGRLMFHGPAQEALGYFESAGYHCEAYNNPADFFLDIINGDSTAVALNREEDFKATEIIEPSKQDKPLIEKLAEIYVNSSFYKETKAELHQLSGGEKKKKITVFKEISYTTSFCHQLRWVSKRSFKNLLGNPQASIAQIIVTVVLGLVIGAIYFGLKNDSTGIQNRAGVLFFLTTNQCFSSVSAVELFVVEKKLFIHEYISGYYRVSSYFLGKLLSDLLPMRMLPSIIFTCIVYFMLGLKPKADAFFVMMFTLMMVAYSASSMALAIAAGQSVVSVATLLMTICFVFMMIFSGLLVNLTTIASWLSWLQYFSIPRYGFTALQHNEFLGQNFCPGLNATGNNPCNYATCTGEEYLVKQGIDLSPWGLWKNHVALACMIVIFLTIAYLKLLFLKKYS

[3] = molecular target: T1, cynomolgus ABCG2 (Macaca fascicularis); test: cell binding
human ABCG2 [4] = molecular target: T2, human ABCG2; test: cell binding
[5] = molecular target: T1, cynomolgus ABCG2 (Macaca fascicularis); test: FACS binding to 293T cells
human ABCG2 [6] = molecular target: T2, human ABCG2; test: FACS binding to 293T cells
[7] = molecular target: T1, cynomolgus ABCG2 (Macaca fascicularis); test: cell binding
human ABCG2 [8] = molecular target: T2, human ABCG2; test: cell binding
G2_418 = test: FACS binding to 293T cells
G2_745 = test: FACS binding to 293T cells
G2_639 = test: FACS binding to 293T cells
h5D3 [9] = test: FACS binding, 293T-G2OX cells
G2_620 = test: FACS binding, 293T-G2OX cells
G2_336 = test: FACS binding to 293T cells
G2_377 = test: FACS binding to 293T cells
G2_656 = test: FACS binding to 293T cells
G2_709 = test: FACS binding to 293T cells
h5D3 [10] = test: FACS cell binding
KNJY-G2-333H = test: FACS cell binding
h5D3 [11] = test: FACS cell binding; remark: listed apart in the source

B1: G2.643 mouse (antibody, V domains shown)
VH: VNLVESGPELVKPGTSVKISCKASGYRFTSYYVHWVKQRPGQGLEWIGWIFPGSDNTKYNEKFKGKATLTADTSSSTAYMQLSSLTSEDSAVYFCASIYYGYDGTLYFDYWGQGTSVTVSS
VL: DIVMTQSHTFMSTSVGDRVSVTCKASQNVGNNVAWYQQKPGQSPNALIYSASYRYSGVPDRFTGSGSGTDFTLTISNVQSEDLAEYFCQQYDRYPLTFGGGTKLEIK
- Kd [1]: 17.1 nM
- Kd (human ABCG2 [2]): 5.9 nM
- EC50 [3]: 65 nM
- EC50 (human ABCG2 [4]): 27 nM

B2: G2.636 rat (antibody, V domains shown)
VH: EVKLVESGGGLVQPGRSLKLSCAASGFTFSRFYMAWVRQAPTKGLEWVAHISHGGDTTYYRDSVKGRFTISRDNAKSTLFLQMDSLRSEDTATYYCTTSAAPWNYVMDGWGLGASVTVSS
VL: DIVMTQSPSLLSASVGDRVTLTCKGSQNINNFLAWYQQKLGEAPKLLIYKTNSLHTGIPSRFSGSGSGTDYTLTISSLHSEDLATYYCYQYNNGYTFGAGTKLELK
- Kd [5]: 62.5 nM
- Kd (human ABCG2 [6]): 10.9 nM
- EC50 [7]: 341 nM
- EC50 (human ABCG2 [8]): 80 nM

B3: hG2 (other)
chain: MSSSNVEVFIPVSQGNTNGFPATASNDLKAFTEGAVLSFHNICYRVKLKSGFLPCRKPVEKEILSNINGIMKPGLNAILGPTGGGKSSLLDVLAARKDPSGLSGDVLINGAPRPANFKCNSGYVVQDDVVMGTLTVRENLQFSAALRLATTMTNHEKNERINRVIQELGLDKVADSKVGTQFIRGVSGGERKRTSIGMELITDPSILFLDEPTTGLDSSTANAVLLLLKRMSKQGRTIIFSIHQPRYSIFKLFDSLTLLASGRLMFHGPAQEALGYFESAGYHCEAYNNPADFFLDIINGDSTAVALNREEDFKATEIIEPSKQDKPLIEKLAEIYVNSSFYKETKAELHQLSGGEKKKKITVFKEISYTTSFCHQLRWVSKRSFKNLLGNPQASIAQIIVTVVLGLVIGAIYFGLKNDSTGIQNRAGVLFFLTTNQCFSSVSAVELFVVEKKLFIHEYISGYYRVSSYFLGKLLSDLLPMRMLPSIIFTCIVYFMLGLKPKADAFFVMMFTLMMVAYSASSMALAIAAGQSVVSVATLLMTICFVFMMIFSGLLVNLTTIASWLSWLQYFSIPRYGFTALQHNEFLGQNFCPGLNATGNNPCNYATCTGEEYLVKQGIDLSPWGLWKNHVALACMIVIFLTIAYLKLLFLKKYS
- Kd (G2_418): 59 nM
- Kd (G2_745): 23.3 nM
- Kd (G2_639): 46.8 nM
- Kd (h5D3 [9]): 2.99 nM
- Kd (G2_620): 15.8 nM
- Kd (G2_336): 28.2 nM
- Kd (G2_377): 16.7 nM
- Kd (G2_656): 36.8 nM
- Kd (G2_709): 20.6 nM

B4: ABCG2 (other)
chain: MSSSNVEVFIPVSQGNTNGFPATASNDLKAFTEGAVLSFHNICYRVKLKSGFLPCRKPVEKEILSNINGIMKPGLNAILGPTGGGKSSLLDVLAARKDPSGLSGDVLINGAPRPANFKCNSGYVVQDDVVMGTLTVRENLQFSAALRLATTMTNHEKNERINRVIQELGLDKVADSKVGTQFIRGVSGGERKRTSIGMELITDPSILFLDEPTTGLDSSTANAVLLLLKRMSKQGRTIIFSIHQPRYSIFKLFDSLTLLASGRLMFHGPAQEALGYFESAGYHCEAYNNPADFFLDIINGDSTAVALNREEDFKATEIIEPSKQDKPLIEKLAEIYVNSSFYKETKAELHQLSGGEKKKKITVFKEISYTTSFCHQLRWVSKRSFKNLLGNPQASIAQIIVTVVLGLVIGAIYFGLKNDSTGIQNRAGVLFFLTTNQCFSSVSAVELFVVEKKLFIHEYISGYYRVSSYFLGKLLSDLLPMRMLPSIIFTCIVYFMLGLKPKADAFFVMMFTLMMVAYSASSMALAIAAGQSVVSVATLLMTICFVFMMIFSGLLVNLTTIASWLSWLQYFSIPRYGFTALQHNEFLGQNFCPGLNATGNNPCNYATCTGEEYLVKQGIDLSPWGLWKNHVALACMIVIFLTIAYLKLLFLKKYS
- Kd (h5D3 [10]): 3.12 nM
- Kd (KNJY-G2-333H): 7.5 nM
- Kd (h5D3 [11]): 81 nM

B5: cG2 (other)
chain: MSSSNVEVFIPMSQENTNGFPTTTSNDRKAFTEGAVLSFHNICYRVKVKSGFLPGRKPVEKEILSNINGIMKPGLNAILGPTGGGKSSLLDVLAARKDPSGLSGDVLINGALRPTNFKCNSGYVVQDDVVMGTLTVRENLQFSAALRLPTTMTNHEKNERINRVIQELGLDKVADSKVGTQFIRGVSGGERKRTSIGMELITDPSILFLDEPTTGLDSSTANAVLLLLKRMSKQGRTIIFSIHQPRYSIFKLFDSLTLLASGRLMFHGPAQEALGYFESAGYHCEAYNNPADFFLDIINGDSTAVALNREEDFKATEIIEPSKRDKPLVEKLAEIYVDSSFYKETKAELHQLSGGEKKKKITVFKEISYTTSFCHQLRWVSKRSFKNLLGNPQASIAQIIVTVILGLVIGAIYFGLNNDSTGIQNRAGVLFFLTTNQCFSSVSAVELFVVEKKLFIHEYISGYYRVSSYFFGKLLSDLLPMRMLPSIIFTCIVYFMLGLKPTADAFFIMMFTLMMVAYSASSMALAIAAGQSVVSVATLLMTICFVFMMIFSGLLVNLTTIASWLSWLQYFSIPRYGFTALQHNEFLGQNFCPGLNATVNNTCNYATCTGEEYLTKQGIDLSPWGLWKNHVALACMIVIFLTIAYLKLLFLKKYS
- Kd (G2_418): 38.8 nM
- Kd (G2_639): 14.3 nM
- Kd (G2_336): 410 nM
- Kd (G2_377): 31.4 nM
- Kd (G2_656): 272 nM
- Kd (G2_709): 41.4 nM
